The source of these data is patent US20050028229A1 (published 2005).

The target of assay [1] is T1, purified human α-hemoglobin (human, UniProt P69905 2-142, heme-bound; carboxy (CO) form in interaction studies, oxy form in stability studies).
T1 construct: Holo-protein with heme; also called CO-α-hemoglobin; carboxy (CO)-α-hemoglobin
Nature of the assay: method not stated; told as 'discussed previously'.

In assay [2] the target is T1, purified human α-hemoglobin. As to the kind of experiment: gel filtration at various concentrations of AHSP and α-hemoglobin (data not shown). For orientation: SEC sorts molecules by how far they enter the pores of the column.
Assay [3] has as its target T2, purified human β-hemoglobin (human, UniProt P68871 2-147, heme-bound; carboxy (CO) form in interaction studies, oxy form in stability studies).
T2 construct: also called CO-β-hemoglobin; oxy-β-hemoglobin
Nature of the assay: gel-filtration chromatography of equimolar mixtures.
From the text: Duplicate strips were stained with benzidine to identify heme-containing proteins, and/or with Ponceau S to stain all proteins.

A value given as a limit tells only on which side of the number the result lay.

T1 sequence (P69905 2-142 limits assumed): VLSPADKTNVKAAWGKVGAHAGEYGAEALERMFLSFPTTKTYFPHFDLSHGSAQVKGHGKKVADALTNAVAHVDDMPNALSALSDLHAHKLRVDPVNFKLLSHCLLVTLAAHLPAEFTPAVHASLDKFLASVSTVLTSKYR
T2 sequence (P68871 2-147 limits assumed): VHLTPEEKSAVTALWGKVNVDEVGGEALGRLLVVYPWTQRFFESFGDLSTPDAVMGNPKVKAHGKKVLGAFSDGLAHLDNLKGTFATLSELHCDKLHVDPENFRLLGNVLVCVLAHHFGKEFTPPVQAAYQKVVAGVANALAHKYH

B1: recombinant human AHSP (Alpha Hemoglobin Stabilizing Protein) (other, UniProt Q9NZD4 1-102, looked up)
chain: MALLKANKDLISAGLKEFSVLLNQQVFNDPLVSEEDMVTVVEDWMNFYINYYRQQVTGEPQERDKALQELRQELNTLANPFLAKYRDFLKSHELPSHPPPSS
notes: species not restated there; also called EDRF; Erythroid Differentiation Related Factor
Usually Kd stands for the equilibrium constant for the complex coming apart. A low value points to higher affinity. As for B1, the Kd in assay [1] is approximately 100 nM; in assay [2], not above 500 nM. The binding result in assay [3] is recorded as “no binding”.
